Columns and labels:
[1] = test system: COLO-205 Human Colon Adenocarcinoma Tumor Xenograft; experiment: COLO-205 human colon adenocarcinoma xenograft model, tumor volume; type: in vivo, mouse; conditions: 5 mg/kg i.p. once weekly
Excerpt: To evaluate antibody drug conjugates (ADCs) as single agents in an COLO-205 Colon AdenocarcinomaTumor Xonograft model, 40 athymic nude female mice age range 6-8 weeks were randomly separated into four separate groups, one vehicle control and three ADC treatments, then maintained individually with food/water ad libitum (see the following Table).
Animals were inoculated in the subcutaneous right flank with 5×10^6 colon adenocarcinoma tumor cells (COLO-205) in matrigel, mean tumor size was 175-225 mm^3 at study initiation. Animals were given either vehicle or one of the antibody drug conjugates (5 mg/kg) by intraperitoneal injection once weekly. Tumor volume and percent body weight change were determined once weekly until study termination. The study was terminated when the tumor in the vehicle control animal reached a mean tumor weight >1500 mm^3. SE refers to “standard error.”

[2] = PAA-glycan ELISA, AcSTn-PAA; type: binding; conditions: 200 ng/well PAA antigen; 1:5 dilutions from 1 μM
Experimental: 18D2 and 18C7 antibodies were further characterized by ELISA comprising antigens other than BSM. ELISAs were carried out according to Example 2, with the exception that ELISA plates were coated with biotinylated polyacrylamide (PAA) particles comprising either AcSTn (AcSTn-PAA), GcSTn (GcSTn-PAA) or Tn (Tn-PAA) as antigens. These particles present the antigens in a multivalent format. Briefly, 96-well ELISA plates were coated with 200 ng/well of each PAA antigen and blocked with PBS with 1% OVA. Antibodies were serially diluted at 1:5 in PBS with 1% OVA using an initial concentration of 1 μM. After blocking, antibodies were added to the plates and plates were incubated for 1.5 hours at room temperature. Binding of anti-STn antibodies was detected using a goat anti-mouse IgG-HRP conjugated antibody (Jackson Immunoresearch Laboratories, West Grove, Pa.). The reaction was developed by addition of HRP substrate and hydrogen peroxide. The reaction was then stopped by the addition of sulfuric acid (1.6 M). Optical densities were measured at 490 nm. A dose-response curve was generated using readings at each concentration tested and a non-linear regression curve was generated with four-parameter modeling to determine EC50 values for each antibody.

Molecule | tumor volume course after day 8 ([1]; athymic nude mice) | Tumor Volume ([1]; study day 1) [mm^3] | Tumor Volume ([1]; study day 5) [mm^3] | Tumor Volume ([1]; study day 8) [mm^3] | Tumor Volume ([1]; study day 10) [mm^3] | Tumor Volume ([1]; study day 15) [mm^3] | Tumor Volume ([1]; study day 19) [mm^3] | Tumor Volume ([1]; study day 22) [mm^3] | Tumor Volume ([1]; study day 25) [mm^3] | EC50 [2] [nM]
S3F: 3F1 variable domains combined with IgG2a constant domains; heavy chain SEQ ID NO: 63, light chain SEQ ID NO: 64 (antibody) heavy: QVQLQQSDAELVKPGASVKISCKASGYTFTDHAIHWVKQKPEQGLDWIGYISPGNGDIKYNEKFKDKVTLTADKSSSTACMHLNSLTSEDSAVYFCKRSLLALDYWGQGTTLTVSSAKTTAPSVYPLAPVCGDTTGSSVTLGCLVKGYFPEPVTLTWNSGSLSSGVHTFPAVLQSDLYTLSSSVTVTSSTWPSQSITCNVAHPASSTKVDKKIEPRGPTIKPCPPCKCPAPNLLGGPSVFIFPPKIKDVLMISLSPIVTCVVVDVSEDDPDVQISWFVNNVEVHTAQTQTHREDYNSTLRVVSALPIQHQDWMSGKEFKCKVNNKDLPAPIERTISKPKGSVRAPQVYVLPPPEEEMTKKQVTLTCMVTDFMPEDIYVEWTNNGKTELNYKNTEPVLDSDGSYFMYSKLRVEKKNWVERNSYSCSVVHEGLHNHHTTKSFSRTPGK light: DIVMTQSHKFMSTSVGDRVSITCKASQDVGTNIAWYQQKPGRSPKVLIYSASTRHTGVPDRFTGSGSGTDFTLTISNVQSEDLTDYFCQQYSSFPLTFGVGTKLELKRADAAPTVSIFPPSSEQLTSGGASVVCFLNNFYPKDINVKWKIDGSERQNGVLNSWTDQDSKDSTYSMSSTLTLTKDEYERHNSYTCEATHKTSTSPIVKSFNRNEC | continued to show rapid increase in volume | 182.8 | 315.2 | 448.8 | 543.1 | 655.3 | 850.6 | 938.2 | 1001.4 | –
18C7: anti-STn mouse monoclonal, IgG2c κ, from mouse #4436; VH SEQ ID NO: 4, VL SEQ ID NO: 5 (antibody, V domains shown) VH: QVTLKESGPGILQPSQTLSLTCSFSGFSLSTFGMGVGWIRQPSGKGLEWLAHIWWDDDKYYNPALKSRLTISKDTSKNQVFLKIANVDTADTATYYCARIAYYYGSERDYWGQGTTLTVSS VL: QIVLTQSPAIMSASPGEKVTMTCSASSSISYMHWYHQKPGTSPKRWIYDTSKLASGVPARFSGSGSGTSYSLTISSMEAEDAATYYCHQRSSYTFGGGTKLEIKR | – | – | – | – | – | – | – | – | – | 4.1

From patent publication US20180280504A1, “GLYCAN-INTERACTING COMPOUNDS AND METHODS OF USE” (SIAMAB THERAPEUTICS, INC., priority 2014, published 2018)
